Laboratory results reported in patent publication US9951373B2, “Oplophorus-derived luciferases, novel coelenterazine substrates, and methods of use” (Promega Corporation, priority 2010, dated 2018).

Tests used:
[1] = Luminescence of 9B8 opt+K33N derived variants in E. coli; format: biochemical
Procedure: Luminescence generated from the lysates was measured using the novel PBI-3939 and native coelenterazine as substrates. The relative specificity of the variants for PBI-3939 and native coelenterazine was calculated as described previously.
A new OgLuc library was created using 9B8opt+K33N as a starting template. The random library was created using DIVERSIFY® PCR Random Mutagenesis Kit (ClonTech; Catalog #630703). Condition 5 (as listed in the user manual) was used to generate additional variants, and the average mutation rate was calculated to be 2.6 mutations per gene by compiling sequence data from 83 randomly selected clones. This PCR library was cloned into the pF4Ag-based, non-fusion vector background described previously and the sandwich background, i.e., Id-OgLuc-HT7 (described in Example 45). Variants in the pF4Ag-base non-fusion vector background are designated with (NF). Variants in the sandwich vector background are designated with (F). In order to clone the PCR product into both vectors, an amino acid, i.e., a glycine, was appended to the variant sequence in pF4Ag, generating a new position 170 in the OgLuc variant (“170G”). The 170G is present in the sandwich construct, but in this case is considered part of the linker between OgLuc and HT7. For each library, 4,400 E. coli clones were assayed as described previously with the following exceptions. […] The assay buffer contained 100 mM MES pH 6.0 instead of HEPES, and 35 mM thiourea. The assay volumes were as follows: 10 μL cells, 40 μL, lysis buffer, and 50 μL, assay buffer.
E. coli lysates containing the variants were prepared and analyzed as described previously. Luminescence generated from the lysates was measured using the novel PBI-3939 and native coelenterazine as substrates. The luminescence of the variants was normalized to the luminescence generated by 9B8 opt (Table 12). The relative specificity of the variants for PBI-3939 and native coelenterazine was calculated by dividing the luminescence of the variants using PBI-3939 as a substrate with the luminescence of the variants using native coelenterazine as a substrate (Table 12).

[2] = Km of L27V reversion variants, native coelenterazine; format: biochemical
Procedure: (§1) Relative activities <1 indicate the reversion is detrimental compared to the residue at that site in the L27V variant. Relative activities >1 indicate the reversion is favorable for activity compared to the residue at that site in the L27V variant. Some additional data on these mutants indicated the following: 166K, 54F, 54A and L27V were tested for thermal stability. The T1/2 60° C. for 166K, 54F, and 54A were 87, 74, and 33%, respectively, indicating these substitutions cause a reduction in thermal stability. […] This indicates higher substrate affinity for L27V, particularly for the position 54 substitutions.

[3] = Km of L27V reversion variants, PBI-3939; format: biochemical
Procedure: as §1

[4] = system: HEK293 cells; test: Luminescence in sandwich background, HEK293 cells; format: cell-based, human; settings: non-sandwich versus sandwich
Procedure: The PCR library in the Id-OgLuc-HT7 sandwich background was screened for additional variants with increased luminescence compared to 9B8 opt+K33N in sandwich background. Selected variants were then assayed in HEK293 and NIH3T3 cells. […] 1F7 (F) (SEQ ID NOs: 84 and 85) and 15H1 (F) (SEQ ID NOs: 86 and 87) had at least 1.3 fold-increase in luminescence in E. coli. 1F7 (F) was brighter than 9B8 opt+K33N in the sandwich background in HEK293 and NIH3T3 cells.
The variants 9B8 opt+K33N+T39T+K43R+Y68D (“V2”; SEQ ID NOs: 92 and 93), 9B8 opt+K33N+L27V+K43R+Y68D (SEQ ID NOs: 339 and 340), 9B8 opt+K33N+L27V+T39T+K43R+S66N (SEQ ID NOs: 341 and 342), and 9B8 opt+K33N+L27V+T39T+K43R+Y68D (“L27V”; SEQ ID NOs: 88 and 89) were subcloned into the Id-OgLuc-HT7 sandwich background as described above and assayed in HEK293 and NIH3T3 cells as described above. The luminescence generated by the sandwiched variants were compared to the luminescence generated by the […] sandwich (SEQ ID NOs: 59 and 60) (Table 38). The L27V sandwich (SEQ ID NOs: 90 and 91) and V2 sandwich (SEQ ID NOs: 94 and 95) had at least 1.3× fold-increase in luminescence in HEK293 and NIH3T3 cells.
The sandwich and non-sandwich versions of the variants V2, 9B8 opt+K33N+L27V+K43R+Y68D, 9B8 opt+K33N+L27V+T39T+K43R+S66N, and L27V were assayed in HEK293 and NIH3T3 cells as described in Example 37. The luminescence generated by the non-sandwiched variants was compared to the luminescence generated by the sandwiched variants (Table 39).

[5] = molecular target: T1, caspase-3 (Homo sapiens, UniProt P42574); test: Bioluminescent caspase-3 assay with L27V variant; format: biochemical; settings: luminescence, 3 hrs room temperature
T1 sequence (P42574 29-175 limits assumed): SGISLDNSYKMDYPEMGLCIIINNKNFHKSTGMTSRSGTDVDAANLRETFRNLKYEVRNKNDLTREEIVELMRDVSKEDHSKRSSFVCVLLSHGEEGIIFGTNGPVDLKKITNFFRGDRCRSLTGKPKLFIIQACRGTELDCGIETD
T1 sequence (P42574 176-277 limits assumed): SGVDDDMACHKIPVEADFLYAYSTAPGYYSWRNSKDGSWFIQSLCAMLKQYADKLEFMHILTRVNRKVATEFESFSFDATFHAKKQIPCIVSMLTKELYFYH
Procedure: (§2) 2. The L27V variant was used in a bioluminescent assay using a pro-coelenterazine substrate comprising the DEVD caspase-3 cleavage sequence. Purified caspase-3 enzyme (1 mg/mL) in 100 mM MES pH 6 (50 μL) was mixed with 227 nM L27V02 variant and 47 μM PBI-3741 (z-DEVD-coelenterazine-h) in assay buffer (50 μL). Reactions were incubated for 3 hrs at room temperature, and luminescence detected as previously described. The assay with the L27V variant was compared to a firefly luciferase version of the assay, CASPASE-GLO® 3/7-Assay system (Caspase-Glo; Promega Corp.).

[6] = system: caspase-3; test: Bioluminescent caspase-3 assay with L27V variant; format: biochemical; settings: luminescence, 3 hrs room temperature
Procedure: as §2

B1: L27V: 9B8 opt+K33N variant with L27V, T39T, K43R, Y68D (SEQ ID NO: 89) (protein)
chain: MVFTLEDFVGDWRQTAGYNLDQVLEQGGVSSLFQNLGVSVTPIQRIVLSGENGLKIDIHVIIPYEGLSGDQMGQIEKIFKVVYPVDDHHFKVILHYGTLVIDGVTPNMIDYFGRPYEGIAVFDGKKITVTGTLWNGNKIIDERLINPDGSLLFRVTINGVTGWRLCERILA
In the case of B1, the Fold over coelenterazine ([1]; luminescence with PBI-3939 divided by luminescence with native coelenterazine, bacterial lysates) is reported as 110, the “Fold over 9B8” value ([1]; luminescence with PBI-3939 normalized to 9B8 opt, bacterial lysates) is reported as 1.8 and the “Fold over Native Coelenterazine, E. coli” value ([1]; relative specificity for PBI-3939 compared to native coelenterazine) is reported as 85.2. The Km [2] was 16 µM, the Km [3] was 18 µM and the “Fold-decrease in luminescence in the presence of sandwich background, HEK 293” value [4] was 6. The “(+) caspase” value [5] was 11,532 and the “(−) caspase” value [6] was 803.
